Columns and labels:
[1] = Pharmacokinetics of soluble receptors in female C57B1/6 mice (serum ELISA, noncompartmental analysis); format: in vivo, mouse; conditions: for AUCINF: extrapolated to infinity
Procedure: Studies were performed to evaluate the pharmacokinetics of the mouse (IL-27RAm(mFc1)) and human (IL-27RA-Fc5) soluble receptors in female C57B1/6 mice.
Serum was generated from each sample and analyzed by a qualified enzyme-linked immunosorbant assay (ELISA). The resulting mean serum concentration versus time profiles were then subjected to noncompartmental pharmacokinetic analyses. The following pharmacokinetic parameters were calculated: C0 and Cmax (extrapolated concentration at time zero and maximum serum concentration, respectively), Tmax (time to achieve maximum concentration), t1/2 λz (terminal half-life), AUC0-t (area under the concentration versus time curve from time zero to the last measurable time point), AUCINF (area under the concentration versus time curve extrapolated to infinity), C1 or C1/F (clearance or clearance divided by bioavailable fraction, respectively), VSS or VZ/F (steady state volume of distribution or volume of distribution divided by the bioavailable fraction, respectively), and F (bioavailable fraction).

huIL-27 = target: T1, huIL-27 (Homo sapiens, UniProt Q14213+Q8NEV9); experiment: Phospho-STAT3 (BIO-PLEX) neutralization of IL-27 by soluble receptors, mouse spleens; format: cell-based; conditions: ligand huIL-27 at EC90 (2 nM)
T1 construct: purchased R&D Systems
T1 sequence (Q8NEV9 29-243): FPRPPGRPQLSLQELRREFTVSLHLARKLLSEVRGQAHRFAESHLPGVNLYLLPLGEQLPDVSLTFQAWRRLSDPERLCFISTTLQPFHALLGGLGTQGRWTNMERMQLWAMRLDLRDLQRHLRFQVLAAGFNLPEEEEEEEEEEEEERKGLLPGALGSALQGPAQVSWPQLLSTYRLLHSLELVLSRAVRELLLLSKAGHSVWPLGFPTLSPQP
T1 sequence (Q14213 21-229): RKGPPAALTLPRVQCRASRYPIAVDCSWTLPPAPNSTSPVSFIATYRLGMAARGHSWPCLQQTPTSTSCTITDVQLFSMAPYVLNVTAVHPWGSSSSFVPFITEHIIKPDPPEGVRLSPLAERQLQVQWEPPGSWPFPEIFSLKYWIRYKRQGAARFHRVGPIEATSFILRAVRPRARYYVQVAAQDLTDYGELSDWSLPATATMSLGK
Source text: (§1) Whole mouse spleens were harvested from C57 B1/6 mice and washed two times with 1×PBS before being plated out at 2×10^5 cells/well in assay media (RPMI 1640 plus 10% fetal bovine serum) in 96-well, round-bottom tissue culture plates. Total human PBMC (peripheral blood mononuclear cells) were thawed from a frozen vial collected from a leukapherisis donation and washed two times with 1×PBS before being plated out at 10^6 cells/well in assay media in 96-well, round-bottom tissue culture plates. […] Following pre-incubation, treatments were added to the plates containing the cells and incubated together at 37° C. for 15 minutes.
(§2) Following incubation, cells were washed with ice-cold wash buffer (BIO-PLEX Cell Lysis Kit, BIO-RAD Laboratories, Hercules, Calif.) and put on ice to stop the reaction according to manufacturer's instructions. […]
(§3) Capture beads (BIO-PLEX Phospho-Stat3 Assay, BIO-RAD Laboratories) were combined with 50 μL of 1:1 diluted lysates and added to a 96-well filter plate according to manufacture's instructions (BIO-PLEX Phosphoprotein Detection Kit, BIO-RAD Laboratories). […] After the final wash, beads were resuspended in 125 μL/well of bead suspension buffer, shaken for 30 seconds, and read on an array reader (BIO-PLEX, BIO-RAD Laboratories) according to the manufacture's instructions. Data were analyzed using analytical software (BIO-PLEX MANAGER 3.0, BIO-RAD Laboratories). […]

muIL-27 = target: T2, muIL-27 (Mus musculus, UniProt O35228+Q8K3I6); experiment: as above; format: cell-based; conditions: ligand muIL-27 at EC90 (0.2 nM)
T2 construct: purchased R&D Systems
T2 sequence (Q8K3I6 29-234): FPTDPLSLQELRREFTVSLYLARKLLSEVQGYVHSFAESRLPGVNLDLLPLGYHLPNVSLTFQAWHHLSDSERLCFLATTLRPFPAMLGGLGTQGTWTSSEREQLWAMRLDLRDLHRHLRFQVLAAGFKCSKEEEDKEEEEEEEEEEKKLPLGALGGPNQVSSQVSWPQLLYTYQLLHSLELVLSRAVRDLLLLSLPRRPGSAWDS
T2 sequence (O35228 19-228): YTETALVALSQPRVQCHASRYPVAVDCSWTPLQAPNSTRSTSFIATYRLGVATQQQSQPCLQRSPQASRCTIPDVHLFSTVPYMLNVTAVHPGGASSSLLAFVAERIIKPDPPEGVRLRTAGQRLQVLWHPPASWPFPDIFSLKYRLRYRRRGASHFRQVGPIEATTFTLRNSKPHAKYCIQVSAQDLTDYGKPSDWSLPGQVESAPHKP
Source text: as §1, §2, §3

B1: IL-27RAm(mFc1): Extracellular domain of mouse IL27RA fused to a wild type BALB/c mouse gamma2a constant region Fc tag (protein)
chain: MNRLERVALARLETPRLEGLLELELESLEMSLELELEGTRPRHGSPRGPRLEQCYSVGPRLEGILENCSWGLPRLEGDLEGLTPRPRVLEYHQSQKYHPRNRVWGLVKVPRSKQSWVTIPRRGLQFTMADKLELEIWGTQKGRPRLEWSSVSVASNLEGLTQMKPRDTPRQIFSQVASPISGLGLATLEGLATVQWAPRPRVWPRPRQKALETCQFRYKGLCQAGLAWTRLEGLPRQLEKTDGLETPRVGLMQNLEGLPRGTCYQVSGRCQVGLNGYPRWGGLWSSPRLESFQTPRFLEDPRGLDVWVSGTVCGLTSGKRAALELEVWKDPRRPRCVQVTYTVWFGAGDITTTQGLGLVPRCCKSPRVPRAWMGLWAVVSPRGNSTSWVPRPRTNLESLEVCLEAPRGLSAPRCDVGVSSADGSPRGIKVTWKQGTARGSPRLEGLYVVASPWAQDGDSLEDKLENWTRLEPRPRGNLESTLELEPRGGLFKGGVPRYRITVTAVYSGGLEAAAPRSVWGFRGLGLLEVPRLEAGPRAVWRLEPRDDPRPRGTPRVVALAWGGLVPRRHQLERGQATHYTFCIQSRGLESTVCRNVSSQTQTATLEPRNLEHSGSFKLEWVTVSTVALAGQGPRPRGPRDLESLEHLEPRDNRIRWKALEPRWFLESLEWGLELELEMGCGLESLEASTRCLEQARCLEHWRHKLELEPRQWIWGLRVPRDPRANSNSGQPRYIKGLVSLEPRQPRPRKDGPRILEGLVGLGLVGLLEQPRVVGLSPRKASAPRIYSGYGLKHFLEPRTPRGLGLLEGLELEV
modifications: left off: a dimerising Fc or GST
notes: Extracellular domain of mouse IL27RA fused to a wild type BALB/c mouse gamma2a constant region Fc tag
For B1, the AUC0-24 ([1]; IP, 100 μg) was 98.2 µg·h/mL, the Cl/F ([1]; IP, 100 μg) was 0.983 mL/h and the Tmax ([1]; IP, 100 μg) was 1 h. For the same molecule, the “t1/2 λz (terminal half-life)” value ([1]; IP, 100 μg) was 5.17 h, the Cmax ([1]; IP, 100 μg, mouse serum) was 13200 ng/mL and the AUCINF ([1]; IP, 100 μg) was 102 µg·h/mL. It also gave an AUC0-24 ([1]; IV, 100 μg) of 157 µg·h/mL, a Cl ([1]; IV, 100 μg) of 0.618 mL/h and a Vss ([1]; IV, 100 μg) of 3.05 mL. For the same molecule, the “t1/2 λz (terminal half-life)” value ([1]; IV, 100 μg) was 5.25 h, the “Co (extrapolated concentration at time zero)” value ([1]; IV, 100 μg, mouse serum) was 36.2 µg/mL and the AUCINF ([1]; IV, 100 μg) was 162 µg·h/mL. It also gave an AUC0-24 ([1]; SC, 100 μg) of 56.5 µg·h/mL, a Tmax ([1]; SC, 100 μg) of 3 h and a Cmax ([1]; SC, 100 μg, mouse serum) of 7950 ng/mL. For the same molecule, the “clearance compared to IL-27RA-Fc5” value ([1]; female C57B1/6 mice) was “more rapid clearance”, the IC50 (huIL-27) was 9.3 nM and the IC50 (muIL-27) was 0.18 nM.
